Biological target: biotinylated peptide comprising the NH2-terminal 73 amino acids of GM130 (N73pep) (UniProt Q62839)
Test: pull-down

B1: p115, vesicle tethering protein (natural protein)
chain: MNFLRGVMGGQSAGPQHTEAETIQKLCDRVASSTLLDDRRNAVRALKSLSKKYRLEVGIQAMEHLIHVLQTDRSDSEIIAYALDTLYNIISNDEEEEVEENSTRQSEDLGSQFTEIFIKQPENVTLLLSLLEEFDFHVRWPGVRLLTSLLKQLGPPVQQIILVSPMGVSKLMDLLADSREIIRNDGVLLLQALTRSNGAIQKIVAFENAFERLLDIITEEGNSDGGIVVEDCLILLQNLLKNNNSNQNFFKEGSYIQRMKAWFEVGDENPGWSAQKVTNLHLMLQLVRVLVSPTNPPGATSSCQKAMFQCGLLQQLCTILMATGIPADILTETINTVSEVIRGCQVNQDYFASVNAPSNPPRPAIVVLLMSMVNERQPFVLRCAVLYCFQCFLYKNEKGQGEIVATLLPSTIDATGNSVSAGQLLCGGLFSTDSLSNWCAAVALAHALQGNATQKEQLLRVQLATSIGNPPVSLLQQCTNILSQGSKIQTRVGLLMLLCTWLSNCPIAVTHFLHNSANVPFLTGQIAENLGEEEQLVQGLCALLLGISIYFNDNSLENYTKEKLKQLIEKRIGKENYIEKLGFISKHELYSRASQKPQPNFPSPEYMIFDHEFTKLVKELEGVITKAIYKSSEEDKKEEEVKKTLEQHDNIVTHYKNMIREQDLQLEELKQQVSTLKCQNEQLQTAVTQQASQIQQHKDQYNLLKVQLGKDNHHQGSHSDGAQVNGIQPEEISRLREEIEELRSHQVLLQSQLAEKDTVIENLRSSQVSGMSEQALATCSPRDAEQVAELKQELSALKSQLCSQSLEITRLQTENSELQQRAETLAKSVPVEGESELVTAAKTTDVEGRLSALLQETKELKNEIKALSEERTAIQKQLDSSNSTIAILQTEKDKLYLEVTDSKKEQDDLLVLLADQDQKILSLKSKLKDLGHPVEEEDESGDQEDDDDELDDGDRDQDI
  percent of p115 depleted from cytosol: > 95%
